According to patent US20260015426A1 (23ANDME, published 2026):
Substitutions are numbered along the chain they refer to. Names may count otherwise. Values belong to the binder of their own block, whether it stands above or below them.

Assays:
[1] = target: T1, cyno-M-IL1RAP construct, positions S21-T367 (cynomolgus monkey, UniProt P59822 21-367 (rhesus entry)); assay: SPR, IgG analyte (apparent), 37 C, pH 6
T1 construct: Biotinylated when captured on the Biacore chip; also called cy-M-IL1RAP
T1 sequence: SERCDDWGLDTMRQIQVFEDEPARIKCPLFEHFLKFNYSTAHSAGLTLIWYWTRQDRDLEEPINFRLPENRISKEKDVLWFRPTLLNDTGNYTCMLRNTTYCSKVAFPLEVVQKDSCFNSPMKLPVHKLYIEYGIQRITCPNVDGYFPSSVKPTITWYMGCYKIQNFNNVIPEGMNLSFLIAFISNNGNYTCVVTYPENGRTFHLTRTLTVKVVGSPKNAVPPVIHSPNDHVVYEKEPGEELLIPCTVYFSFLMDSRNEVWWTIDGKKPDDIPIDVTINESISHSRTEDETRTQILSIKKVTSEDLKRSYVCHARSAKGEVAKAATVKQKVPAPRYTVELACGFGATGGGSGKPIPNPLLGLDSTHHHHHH
Protocol: (§1) Surface plasmon resonance (SPR) analysis was used to determine binding affinity for hu-M-IL1RAP of the purified Fabs containing the selected single, double, and triple mutations in either the VL or VH regions using a BIACORE™ 8K instrument. […] For kinetics measurements, 5 nM biotinylated hu-M-IL1RAP was captured at 10 μL/min to achieve ˜50 response units in the second flow cell (FC2). FC1 was kept as a reference. […] The sensorgrams were recorded and subjected to reference and buffer subtraction before data analysis with the BIACORE® 8K Evaluation Software (version 1.1.1.7442). Association rates (kₒₙ) and dissociation rates (koff) were calculated using a simple one-to-one Langmuir binding model. The equilibrium dissociation constant (KD) was calculated as the ratio of koff/kₒₙ.

[2] = target: T2, hu-M-IL1RAP construct, positions S21-T367 (extracellular domain of the membrane form of human IL1RAP) (human, UniProt Q9NPH3 21-367); assay: SPR, IgG analyte (apparent), 37 C, pH 6
T2 construct: Biotinylated when captured on the Biacore chip
T2 sequence: T1 sequence with F183L, P273T, T326K
Protocol: as §1

[3] = target: T1, cyno-M-IL1RAP construct, positions …; assay: SPR, IgG analyte (apparent), 37 C, pH 7.4
Protocol: as §1

[4] = target: T2, hu-M-IL1RAP construct, positions …; assay: SPR, IgG analyte (apparent), 37 C, pH 7.4
Protocol: as §1

[5] = target: T1, cyno-M-IL1RAP construct, positions …; assay: SPR, IgG analyte (apparent), pH 7.4, 37 C
[6] = target: T2, hu-M-IL1RAP construct, positions …; assay: SPR, IgG analyte (apparent), pH 7.4, 37 C
[7] = target: T3, human IL1RAP (hu-IL1RAP) on human cells (human, UniProt Q9NPH3 21-570); assay: cell-based or functional assay
T3 sequence: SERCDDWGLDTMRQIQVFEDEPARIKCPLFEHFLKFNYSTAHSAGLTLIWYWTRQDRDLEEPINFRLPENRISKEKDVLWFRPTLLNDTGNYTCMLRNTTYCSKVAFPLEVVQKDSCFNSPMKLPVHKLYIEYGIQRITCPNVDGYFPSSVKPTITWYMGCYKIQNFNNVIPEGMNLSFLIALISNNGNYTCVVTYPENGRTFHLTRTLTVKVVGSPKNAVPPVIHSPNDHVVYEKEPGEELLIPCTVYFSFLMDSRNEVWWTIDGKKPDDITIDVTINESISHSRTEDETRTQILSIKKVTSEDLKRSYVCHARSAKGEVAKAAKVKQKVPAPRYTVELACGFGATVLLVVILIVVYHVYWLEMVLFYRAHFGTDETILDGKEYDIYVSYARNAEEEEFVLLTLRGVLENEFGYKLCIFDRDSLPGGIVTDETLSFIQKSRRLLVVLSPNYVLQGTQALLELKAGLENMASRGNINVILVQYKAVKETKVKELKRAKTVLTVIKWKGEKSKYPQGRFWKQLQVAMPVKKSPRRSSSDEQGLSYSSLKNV

[8] = target: T1, cyno-M-IL1RAP construct, positions …; assay: SPR, 37 C
Protocol: as §1

[9] = target: T2, hu-M-IL1RAP construct, positions …; assay: SPR, 37 C
Protocol: as §1

[10] = target: T3, human IL1RAP (hu-IL1RAP) on human cells; assay: cell-based or functional assay; remark: listed apart in the source
[11] = target: T2, hu-M-IL1RAP construct, positions …; assay: BLI (OCTET), mAb captured, 25 C
Protocol: All samples were placed in black 96-well plates and the experiment was performed at 25° C. […] The biosensors were equilibrated in experimental buffer at 25° C. for ten minutes prior to starting the experiment.
The resulting BLI signal from analyte association and dissociation from the immobilized antibody was analyzed using the Octet Data Analysis software (Pall ForteBio). First, a reference subtraction was performed on all recorded traces using the reference well (biosensor that underwent the same steps as experimental wells but no analyte for the Association step), then all the traces were aligned to the beginning of the Association step.

[12] = target: T3, human IL1RAP (hu-IL1RAP) on human cells; assay: cell-based or functional assay; remark: listed apart in the source

B1: h11C5 variant K13/H3 IgG (YIS) (antibody)
heavy: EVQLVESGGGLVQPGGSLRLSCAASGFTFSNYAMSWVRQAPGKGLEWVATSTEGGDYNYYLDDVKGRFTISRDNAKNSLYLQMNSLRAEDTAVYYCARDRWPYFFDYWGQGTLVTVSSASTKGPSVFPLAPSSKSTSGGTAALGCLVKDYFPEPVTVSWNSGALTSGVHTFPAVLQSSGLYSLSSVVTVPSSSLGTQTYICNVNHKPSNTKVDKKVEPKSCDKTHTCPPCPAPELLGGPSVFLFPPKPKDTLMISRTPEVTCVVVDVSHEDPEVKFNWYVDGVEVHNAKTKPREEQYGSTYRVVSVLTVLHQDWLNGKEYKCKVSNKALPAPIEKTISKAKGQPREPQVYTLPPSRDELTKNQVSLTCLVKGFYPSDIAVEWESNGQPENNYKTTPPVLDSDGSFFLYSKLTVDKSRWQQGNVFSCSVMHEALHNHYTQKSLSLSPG
light: DIQMTQSPSSLSASVGDRVTITCRASENIYSNLAWYQQKPGKSPKLLVYGYKNLADGVPSRFSGSGSGTDYTLTISSLQPEDFATYYCQHFITTPRTFGGGTKVEIKRTVAAPSVFIFPPSDEQLKSGTASVVCLLNNFYPREAKVQWKVDNALQSGNSQESVTEQDSKDSTYSLSSTLTLSKADYEKHKVYACEVTHQGLSSPVTKSFNRGEC
notes: Human IgG1 N297G; also called 11C5-YIS
Kd [1]: 0.0345 nM | koff [1]: 6.94e-05 s⁻¹ | kon [1]: 2.01e+06 M⁻¹ s⁻¹ | Kd [2]: 0.0705 nM | koff [2]: 0.00015 s⁻¹ | kon [2]: 2.12e+06 M⁻¹ s⁻¹ | Kd [3]: 0.014 nM | koff [3]: 3e-05 s⁻¹ | kon [3]: 2.14e+06 M⁻¹ s⁻¹ | Kd [4]: 0.0213 nM | koff [4]: 3.94e-05 s⁻¹ | kon [4]: 1.85e+06 M⁻¹ s⁻¹ | Kd [5]: 0.0116 nM | koff [5]: 3.34e-05 s⁻¹ | kon [5]: 2.87e+06 M⁻¹ s⁻¹ | Kd [6]: 0.013 nM | koff [6]: 3.33e-05 s⁻¹ | kon [6]: 2.55e+06 M⁻¹ s⁻¹ | HEK-Blue, IL-1β, % inhibition at 100 nM (IgG) [7]: 100% | HEK-Blue, IL-1β, IC50 (IgG) [7]: 0.251 nM | HEK-Blue, IL-33, % inhibition at 100 nM (IgG) [7]: 98% | HEK-Blue, IL-33, IC50 (IgG) [7]: 0.425 nM | HEK-Blue, IL-36α, % inhibition at 100 nM (IgG) [7]: 100% | HEK-Blue, IL-36α, IC50 (IgG) [7]: 0.232 nM | KD (6)/KD (7.4) [8]: 2.5 ratio | KD (7.4) ratio to YIS [8]: 1 ratio | koff (6) ratio to YIS [8]: 1 ratio | KD (6)/KD (7.4) [9]: 3.3 ratio | KD (7.4) ratio to YIS [9]: 1 ratio | koff (6) ratio to YIS [9]: 1 ratio

B4: h11C5 (humanized 11C5 mAb) (antibody, human IgG1, kappa, N297G, V domains shown)
VH: EVQLVESGGGLVQPGGSLRLSCAASGFTFSNYAMSWVRQAPGKGLEWVATVTEGGDYNYCLDDVKGRFTISRDNAKNSLYLQMNSLRAEDTAVYYCARDRWPYFFDYWGQGTLVTVSS
VL: DIQMTQSPSSLSASVGDRVTITCRASENIYSNLAWYQQKPGKAPKLLVYGAKNLADGVPSRFSGSGSGTDYTLTISSLQPEDFATYYCQHFWTTPRTFGGGTKVEIKR
notes: Human IgG1/kappa
HEK-Blue, IL-1β, IC50 [10]: 3.12 nM | HEK-Blue, IL-33, % inhibition at 100 nM [10]: 80% | HEK-Blue, IL-33, IC50 [10]: 24 nM | Kd [11]: 1.06 nM

B5: c11C5_C59Y (C59Y variant of c11C5) (antibody, IgG1, V domains shown)
VH: EVQLVESGGGLVKPGGSLKLSCAASGFTFSNYAMSWVRQTPEKRLEWVATVTEGGDYNYYLDDVKGRFTISRDNANDNLYLQMSHLKSEDSARYYCARDRWPYFFDYWGQGTTLTVSS
VL: DIQMTQSPASLSVSVGETVTITCRASENIYSNLAWYQQKQGRSPQLLVYGAKNLADGVPSRFSGSGSGTQYSLNINSLQSEDFGTYYCQHFWTTPRTFGGGTKLEIK
notes: Murine VL and VH, human CL and IgG1 CH1-CH3 domains with effectorless N297G
Kd [11]: 0.446 nM | NK cells, IL-33+IL-12 stimulated IFN-γ, IC50 [12]: 2.9 nM | PHLF, IL-1α stimulated IL-8, IC50 [12]: 3.96 nM | PHLF, IL-36β stimulated IL-8, IC50 [12]: 0.284 nM | monocytes, IL-1β stimulated IL-6, IC50 [12]: 0.733 nM

The remaining lines, values ahead:

Kd [1]: 0.101 nM | koff [1]: 0.000121 s⁻¹ | kon [1]: 1.2e+06 M⁻¹ s⁻¹ | Kd [2]: 0.0962 nM | koff [2]: 0.000182 s⁻¹ | kon [2]: 1.9e+06 M⁻¹ s⁻¹ | Kd [3]: 0.0221 nM | koff [3]: 4.51e-05 s⁻¹ | kon [3]: 2.04e+06 M⁻¹ s⁻¹ | Kd [4]: 0.0226 nM | koff [4]: 3.87e-05 s⁻¹ | kon [4]: 1.71e+06 M⁻¹ s⁻¹ | HEK-Blue, IL-1β, % inhibition at 100 nM (IgG) [7]: 100% | HEK-Blue, IL-1β, IC50 (IgG) [7]: 0.429 nM | HEK-Blue, IL-33, % inhibition at 100 nM (IgG) [7]: 87% | HEK-Blue, IL-33, IC50 (IgG) [7]: 2.5 nM | HEK-Blue, IL-36α, % inhibition at 100 nM (IgG) [7]: 96% | HEK-Blue, IL-36α, IC50 (IgG) [7]: 0.418 nM | KD (6)/KD (7.4) [8]: 4.6 ratio | KD (7.4) ratio to YIS [8]: 1.6 ratio | koff (6) ratio to YIS [8]: 1.7 ratio | KD (6)/KD (7.4) [9]: 4.3 ratio | KD (7.4) ratio to YIS [9]: 1.1 ratio | koff (6) ratio to YIS [9]: 1.2 ratio
B2: h11C5 variant K17/H3 IgG (YKS) (antibody, V domains shown)
VH: B4 VH with V51S, C60Y
VL: B4 VL with A43S, A51Y, W92K
notes: Human IgG1 N297G; also called 11C5-YKS

Kd [1]: 0.0993 nM | koff [1]: 0.000215 s⁻¹ | kon [1]: 2.16e+06 M⁻¹ s⁻¹ | Kd [2]: 0.141 nM | koff [2]: 0.000414 s⁻¹ | kon [2]: 2.94e+06 M⁻¹ s⁻¹ | Kd [3]: 0.0244 nM | koff [3]: 4.62e-05 s⁻¹ | kon [3]: 1.89e+06 M⁻¹ s⁻¹ | Kd [4]: 0.014 nM | koff [4]: 2.69e-05 s⁻¹ | kon [4]: 1.93e+06 M⁻¹ s⁻¹ | HEK-Blue, IL-1β, % inhibition at 100 nM (IgG) [7]: 100% | HEK-Blue, IL-1β, IC50 (IgG) [7]: 0.361 nM | HEK-Blue, IL-33, % inhibition at 100 nM (IgG) [7]: 99% | HEK-Blue, IL-33, IC50 (IgG) [7]: 1.52 nM | HEK-Blue, IL-36α, % inhibition at 100 nM (IgG) [7]: 100% | HEK-Blue, IL-36α, IC50 (IgG) [7]: 0.477 nM | KD (6)/KD (7.4) [8]: 4.1 ratio | KD (7.4) ratio to YIS [8]: 1.7 ratio | koff (6) ratio to YIS [8]: 3 ratio | KD (6)/KD (7.4) [9]: 10 ratio | KD (7.4) ratio to YIS [9]: 0.66 ratio | koff (6) ratio to YIS [9]: 2.8 ratio
B3: h11C5 variant K13/H2 IgG (YID) (antibody, V domains shown)
VH: B4 VH with C60Y, R100D
VL: B4 VL with A43S, A51Y, W92I
notes: Human IgG1 N297G; also called 11C5-YID

HEK-Blue, IL-1β, IC50 [10]: 0.705 nM | HEK-Blue, IL-33, IC50 [10]: 2.25 nM | Kd [11]: 0.37 nM
B6: m11C5 (recombinant murine 11C5) (antibody, mouse IgG2a, V domains shown)
VH: B5 VH with Y60C
VL: B5 VL
notes: Murine IgG2a constant domains

HEK-Blue, IL-1β, IC50 [10]: 1.03 nM | HEK-Blue, IL-33, IC50 [10]: 3.75 nM | Kd [11]: 1.34 nM
B7: h11C5_C59Y (C59Y variant of h11C5) (antibody, human IgG1, V domains shown)
VH: B4 VH with C60Y
VL: DIQMTQSPSSLSASVGDRVTITCRASENIYSNLAWYQQKPGKAPKLLVYGAKNLADGVPSRFSGSGSGTDYTLTISSLQPEDFATYYCQHFWTTPRTFGGGTKVEIK
notes: Human IgG1/kappa constant domains
